Results from patent US9572342B2, “Use of an anthranilic diamide derivatives with heteroaromatic and heterocyclic substituents in combination with a biologicalcontrol agent” (BAYER INTELLECTUAL PROPERTY GMBH, priority 2011, dated 2017).

Assays:
Assay type in all cases: in vivo
[1] = system: mustard beetle larvae (Phaedon cochleariae); experiment: Phaedon cochleariae larvae - spray application (Example 1); conditions: 48 h, read-out: Mortality in % after 2d
Protocol: (§1) Solvent: 78.0 parts by weight of acetone
(§2) • 1.5 parts by weight of dimethylformamide Emulsifier: 0.5 parts by weight of alkylaryl polyglycolether
(§3) To produce a suitable preparation of active compound, 1 part by weight of active compound is mixed with the stated amount of solvent and emulsifier, and the concentrate is diluted with emulsifier-containing water to the desired concentration. The preparation of bacteria, fungi or yeast products contains 10^9-10^10 spores/g or cells/g, the preparation of the virus 10^13 particles/1. To produce a suitable preparation of a biological suspension the cells, viruses or spores are diluted with emulsifier-containing water to the desired concentration.
Chinese cabbage (Brassica pekinensis) leaf-discs are sprayed with a preparation of the active ingredient of the desired concentration. Once dry, the leaf discs are infested with mustard beetle larvae (Phaedon cochleariae).
After the specified period of time, mortality in % is determined. 100% means that all the beetle larvae have been killed; 0% means that none of the beetle larvae have been killed. The mortality values thus determined are recalculated using the Colby-formula.

[2] = system: two spotted spider mite (Tetranychus urticae); experiment: Tetranychus urticae test (OP-resistant, spray application) (Example 3); conditions: 1.5 g ai/ha
Protocol: Solvent: 78 parts by weight acetone
• 1.5 parts by weight dimethylformamide Wetting agent: 0.5 parts by weight alkylarylpolyglcolether
as §3, with “preparation of the bacteria, fungi” for “preparation of bacteria, fungi”, “spores/g or cells/g. To produce” for “spores/g or cells/g, the preparation of the virus 10^13 particles/1. To produce”
French beans (Phaseolus vulgaris) infected with all developmental stages of the two spotted spider mite (Tetranychus urticae), are sprayed with a preparation of the active ingredient at the desired dose rates.
After the specified period of time, activity in % is determined Thus 100% means that all spider mites have been killed and 0% means that none of the spider mites have been killed. The mortality values determined thus are recalculated using the Colby-formula (see sheet 1).

[3] = system: fall armyworm larvae (Spodoptera frugiperda); experiment: Spodoptera frugiperda - spray application (Example 2); conditions: 1.5 g ai/ha
Protocol: as §1, §2
as §3, with “preparation of the bacteria, fungi” for “preparation of bacteria, fungi”
Corn (Zea mais) leaf-discs are sprayed with a preparation of the active ingredient of the desired concentration. Once dry, the leaf discs are infested with fall armyworm larvae (Spodoptera frugiperda).
After the specified period of time, mortality in % is determined. 100% means that all the caterpillars have been killed; 0% means that none of the caterpillars have been killed. The mortality values thus determined are recalculated using the Colby-formula.

Row | Molecule | mortality at 1000 g/ha [1] [%] | Mortality in % after 6d [2] [%] | Mortality in % after 2d [3] [%]
1 | Cc1ccc(C(C)C)c(O)c1 [Thymol] | 0 |  | 
2 | Harpin: Harpin protein, isolated from Erwinia amylovora (products known as Messenger, ProAct, Employ) (protein, UniProt Q01099 1-403, looked up) Harpin HrpN: MSLNTSGLGASTMQISIGGAGGNNGLLGTSRQNAGLGGNSALGLGGGNQNDTVNQLAGLLTGMMMMMSMMGGGGLMGGGLGGGLGNGLGGSGGLGEGLSNALNDMLGGSLNTLGSKGGNNTTSTTNSPLDQALGINSTSQNDDSTSGTDSTSDSSDPMQQLLKMFSEIMQSLFGDGQDGTQGSSSGGKQPTEGEQNAYKKGVTDALSGLMGNGLSQLLGNGGLGGGQGGNAGTGLDGSSLGGKGLQNLSGPVDYQQLGNAVGTGIGMKAGIQALNDIGTHSDSSTRSFVNKGDRAMAKEIGQFMDQYPEVFGKPQYQKGPGQEVKTDDKSWAKALSKPDDDGMTPASMEQFNKAKGMIKSAMAGDTGNGNLQARGAGGSSLGIDAMMAGDAINNMALGKLGAA |  | 0 | 0
